# Test results published in US20190241662A1 (ADAGENE, published 2019).
# Residue numbers refer to the chain shown, from its start.
# T1: recombinant human CTLA4-Fc (human, UniProt P16410 36-162)
# T1 construct: also called human CTLA4 fused with human FC fragment; CTLA4-Fc (Sino Biological, 11159-H03H)
# T1 sequence (looked up): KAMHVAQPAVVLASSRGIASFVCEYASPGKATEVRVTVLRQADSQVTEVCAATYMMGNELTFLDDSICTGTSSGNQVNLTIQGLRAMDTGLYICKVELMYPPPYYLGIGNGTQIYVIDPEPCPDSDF
# T2: canine CTLA4 fused with His tag (canine, UniProt Q9XSI1 36-162, limits assumed)
# T2 construct: also called dog CTLA4
# T2 sequence (looked up): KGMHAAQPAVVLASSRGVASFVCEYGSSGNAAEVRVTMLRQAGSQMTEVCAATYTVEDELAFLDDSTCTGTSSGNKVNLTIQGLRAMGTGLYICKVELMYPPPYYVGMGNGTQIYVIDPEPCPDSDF
# T3: human LAG3 on HEK293F cells (human, UniProt P18627 23-525)
# T3 construct: whole, on cells
# T3 sequence (looked up): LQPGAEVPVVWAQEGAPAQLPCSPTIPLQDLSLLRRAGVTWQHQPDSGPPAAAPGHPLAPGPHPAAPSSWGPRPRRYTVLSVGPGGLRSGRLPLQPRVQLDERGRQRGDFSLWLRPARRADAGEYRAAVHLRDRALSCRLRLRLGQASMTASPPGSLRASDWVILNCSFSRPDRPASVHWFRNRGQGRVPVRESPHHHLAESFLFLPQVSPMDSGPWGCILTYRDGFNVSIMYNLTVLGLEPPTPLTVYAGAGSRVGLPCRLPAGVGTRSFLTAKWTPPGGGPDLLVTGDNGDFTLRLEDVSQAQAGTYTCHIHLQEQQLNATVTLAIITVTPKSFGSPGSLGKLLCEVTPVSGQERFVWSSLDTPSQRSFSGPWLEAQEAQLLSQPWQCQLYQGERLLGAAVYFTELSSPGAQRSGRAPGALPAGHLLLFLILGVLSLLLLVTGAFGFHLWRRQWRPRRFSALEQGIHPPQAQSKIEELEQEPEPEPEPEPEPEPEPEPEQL
# T4: recombinant human CTLA4 fused with human Fc and His tag (human, UniProt P16410 36-162, limits assumed)
# T4 construct: Coated in the CD80 ELISA, biotinylated and in solution in the CD86 ELISA; also called biotinylated human CTLA4 fused with human FC and His tag
# T4 sequence (looked up): T1 sequence (looked up)
# T5: recombinant human CTLA4 protein (construct not stated) (human, UniProt P16410 36-162, limits assumed)
# T5 construct: also called biotinylated human CTLA4; human recombinant CTLA4 proteins
# T5 sequence (looked up): T1 sequence (looked up)
# T6: monkey CTLA4 (SPR analyte, construct not stated) (monkey, UniProt G7PL88 36-161)
# T6 sequence: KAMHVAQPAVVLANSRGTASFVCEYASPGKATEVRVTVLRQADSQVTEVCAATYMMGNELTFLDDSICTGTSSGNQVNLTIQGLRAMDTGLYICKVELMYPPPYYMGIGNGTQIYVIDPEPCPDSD
# B1: TY21591 (antibody, V domains shown)
# VH: EVQLVESGGGLVQPGGSLRLSCAASGFSLSTGGVAVSWIRQAPGKGLEWIGEIYHSGSTYYSPSLKSRVTISRDNSKNTLYLQLNSLRAEDTAVYYCARRIATATYFDYWGQGTLVTVSS
# VL: DIQLTQSPSSLSASVGDRVTITCRASQTVFSRYLAWYQQKPGKAPKLLIYDASNRATGIPSRFSGSGSGTDFTLTISSLQPEDFATYYCQQSYYWPPWTFGQGTKVEIK
# notes: human IgG1 (hIgG1) from Fab hit B15756
# B2: TY21687 (antibody, V domains shown)
# VH: EVQLVESGGGLVQPGGSLRLSCAASGFTFSGYAIHWVRQAPGKGLEWIGIISPSGGGTKYAQKFQGRVTISRDNSKNTLYLQLNSLRAEDTAVYYCARHPFAYWGQGTLVTVSS
# VL: DIQLTQSPSSLSASVGDRVTITCRASQSVDFYGISFLDWYQQKPGKAPKLLIYDASNRATGIPSRFSGSGSGTDFTLTISSLQPEDFATYYCQQYVSSPPEYTFGQGTKVEIK
# notes: human IgG1 (hIgG1) from Fab hit B15700
# B3: TY21585 (antibody, V domains shown)
# VH: EVQLVESGGGLVQPGGSLRLSCAASGFTFSDYAIHWVRQAPGKGLEWIGIISPSSGSTNYAQKFQGRVTISRDNSKNTLYLQLNSLRAEDTAVYYCARDIHSGSSGYYYGFDVWGQGTLVTVSS
# VL: B2 VL with Q27E, Y32F, D38A, Q94H, V96T, E101V
# notes: human IgG1 (hIgG1) from Fab hit B15709
# B4: TY21691 (antibody, V domains shown)
# VH: EVQLVESGGGLVQPGGSLRLSCAASGFTFSDYAIHWVRQAPGKGLEWIGIISPSGGSTKYAQKFQGRVTISRDNSKNTLYLQLNSLRAEDTAVYYCARLGYGYFDVWGQGTLVTVSS
# VL: DIQLTQSPSSLSASVGDRVTITCRASQSVDFYGISFLHWYQQKPGKAPKLLIYDASSLESGVPSRFSGSGSGTDFTLTISSLQPEDFATYYCVQALQLPLTFGQGTKVEIK
# notes: human IgG1 (hIgG1) from Fab hit B15736
# Molecular target: T1, recombinant human CTLA4-Fc
# Assay: ELISA, coated human CTLA4-Fc
# Description: (§1) The ability of certain IgG antibodies to bind to soluble human (FIG. 1A, Table 5A) or canine (FIG. 1B, Table 5B) CTLA4 was next tested. 1 μg/mL human CTLA4 fused with human FC fragment, or canine CTLA4 fused with His tag, were prepared and used to coat an ELISA plate at 2-8° C. overnight. After blocking, 100 μL serial diluted IgG antibodies were added and incubated at 37° C. for 1 hour. Plates were washed for four times and then incubated with HRP-anti human IgG (Fab specific) (1:6000 dilution) at 37° C. for 1 hour. Plates were washed again four times and incubated with TMB substrate for 15 minutes at room temperature. […] The data was analyzed by Graphpad Prism 6 with nonlinear fitting.
Binder,EC50,Kd,LogEC50
B1,0.831 nM,0.83 nM,-9.08
B2,0.32 nM,0.32 nM,-9.49
B3,0.555 nM,0.56 nM,-9.26

# Molecular target: T2, canine CTLA4 fused with His tag
# Assay: ELISA, coated canine CTLA4-His
# Description: as §1
Binder,EC50,Kd,LogEC50
B1,0.707 nM,0.71 nM,-9.15
B2,0.745 nM,0.75 nM,-9.13
B3,6.04 nM,6.05 nM,-8.22

# Molecular target: T3, human LAG3 on HEK293F cells
# Assay: flow cytometry, transfected HEK293F cells
# Description: (§2) Antibody selectivity was next examined. Human CTLA4, PD1, LAG3, Tim3, B7H3, CD95, TNFR1, OX40, CD40, PD-L1, BLTA, VISTA, PDL2, ICOS and B7H4 were transiently overexpressed on the surface of HEK293F cells. Transfected cells were washed in pre-chilled 1×PBSA buffer (1.76 mM KH2PO4, 10.14 mM Na2HPO4.12H2O, 2.68 mM KCl, 136.89 mM NaCl and 1% BSA), then incubated with 100 nM test antibodies for 1 hour on ice. Cells were washed once with staining buffer, and Alexa Fluor® 647 conjugated mouse anti-human FC antibodies were added and incubated for 30 minutes on ice, protected from light. Samples were washed once with staining buffer prior to analysis by flow cytometry.
row,Binder,binding result
1,B4,no binding (tested: 100 nM)
2,B3,no binding (tested: 100 nM)

# Molecular target: T7, human PD1 on HEK293F cells (human, UniProt Q15116 25-288)
# T7 construct: whole, on cells
# Assay: flow cytometry, transfected HEK293F cells
# Description: as §2
# T7 sequence (Q15116 25-288): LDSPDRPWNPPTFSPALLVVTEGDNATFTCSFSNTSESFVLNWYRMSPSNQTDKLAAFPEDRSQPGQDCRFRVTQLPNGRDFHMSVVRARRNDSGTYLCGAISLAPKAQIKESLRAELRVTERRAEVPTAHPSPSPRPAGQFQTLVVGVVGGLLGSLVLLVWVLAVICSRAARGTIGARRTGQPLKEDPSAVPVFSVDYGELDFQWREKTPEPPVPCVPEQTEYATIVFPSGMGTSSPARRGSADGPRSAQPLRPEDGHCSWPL
row,Binder,binding result
1,B4,no binding (tested: 100 nM)
2,B3,no binding (tested: 100 nM)

# Molecular target: T4, recombinant human CTLA4 fused with …
# Assay: competition ELISA: plate-bound human CTLA4-Fc-His, biotinylated CD80 as blocked ligand
# Description: Antibodies were then tested for their ability to block binding of CTLA4 to its cognate ligands CD80 and CD86 by ELISA. […] Plates were blocked with PBS supplemented with 2% (w/v) skim milk at 37° C. for 1 hour. […] Plates were washed four times, and 100 μL HRP-neutravidin (1:1000) was added to each well and incubated at 37° C. for 1 hour. Plates were washed as previously described, and 50 μL TMB substrate solution was added and incubated at room temperature for 5 minutes before the reaction was stopped by 50 μL sulfate acid (2M).
row,Binder,IC50 (read off the curve)
1,B1,~10 nM
2,B4,~20 nM
3,B2,~20 nM
4,B3,~10 nM

# Molecular target: T5, recombinant human CTLA4 protein …
# Assay: SPR (Biacore T200), IgG captured by anti-human Fc
# Description: (§3) Binding affinity and kinetics of antibodies against human, monkey and mouse CTLA4 were examined (Table 4) by surface plasmon resonance (SPR) analysis using a Biacore™ T200 instrument (Biacore AB, Uppsala, Sweden) according to the manufacturer's guidelines. Anti-Human IgG (Fc) antibody from Human Antibody Capture Kit (GE BR-1008-39) was immobilized on CM5 chips by coupling of its amine groups onto carboxylated surfaces of sensor chips according to the instructions of an Amine Coupling kit (GE Biacore #BR-1000-50). […] The association and dissociation curves were fitted to a 1:1 Langmuir binding model using Biacore T200 Evaluation Software (Biacore AB) according to the manufacturer's guidelines.
row,Binder,Kd
1,B1,9.68 nM
2,B4,2.08 nM
3,B2,1.82 nM
4,B3,8.15 nM

# Molecular target: mouse CTLA4 (SPR analyte, construct not stated) (mouse, UniProt P09793 36-162, limits assumed)
# Assay: SPR (Biacore T200), IgG captured by anti-human Fc
# Description: as §3
row,Binder,Kd
1,B4,1.46 nM
2,B2,2.76 nM
3,B3,1.71 nM

# Molecular target: T6, monkey CTLA4 (SPR analyte, construct …)
# Assay: SPR (Biacore T200), IgG captured by anti-human Fc
# Description: as §3
row,Binder,Kd
1,B1,3.27 nM
2,B4,2.44 nM
3,B2,1.52 nM
4,B3,8.26 nM
